# T1: human CEACAM5 on MKN-45 cells (human, UniProt P06731 35-685)
# T1 construct: Endogenous CEACAM5 on MKN-45 gastric adenocarcinoma cells, which also carry CD47 (and CEACAM6); also called CD66e; MKN45 CEA+ cancer cells
# T1 sequence: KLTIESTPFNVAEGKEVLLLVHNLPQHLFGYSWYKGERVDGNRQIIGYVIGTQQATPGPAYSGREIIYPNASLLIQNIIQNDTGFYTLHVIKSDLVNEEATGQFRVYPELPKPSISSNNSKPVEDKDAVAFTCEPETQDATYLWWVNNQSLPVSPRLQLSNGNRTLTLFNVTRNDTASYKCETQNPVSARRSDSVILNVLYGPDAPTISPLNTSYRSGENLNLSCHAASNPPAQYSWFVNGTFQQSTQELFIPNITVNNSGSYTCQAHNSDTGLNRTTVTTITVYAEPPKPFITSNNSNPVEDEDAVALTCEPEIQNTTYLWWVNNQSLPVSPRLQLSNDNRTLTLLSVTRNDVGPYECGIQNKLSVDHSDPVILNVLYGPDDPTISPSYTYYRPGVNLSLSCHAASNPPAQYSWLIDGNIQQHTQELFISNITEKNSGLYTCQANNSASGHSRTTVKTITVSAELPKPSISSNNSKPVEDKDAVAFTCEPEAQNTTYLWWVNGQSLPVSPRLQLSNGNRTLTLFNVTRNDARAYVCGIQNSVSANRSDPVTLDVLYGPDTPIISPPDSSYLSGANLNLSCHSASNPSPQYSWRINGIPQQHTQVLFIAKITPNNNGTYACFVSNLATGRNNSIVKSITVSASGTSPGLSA
# T2: shed CEA (soluble CEA) (human, UniProt P06731 35-685, limits assumed)
# T2 sequence (looked up): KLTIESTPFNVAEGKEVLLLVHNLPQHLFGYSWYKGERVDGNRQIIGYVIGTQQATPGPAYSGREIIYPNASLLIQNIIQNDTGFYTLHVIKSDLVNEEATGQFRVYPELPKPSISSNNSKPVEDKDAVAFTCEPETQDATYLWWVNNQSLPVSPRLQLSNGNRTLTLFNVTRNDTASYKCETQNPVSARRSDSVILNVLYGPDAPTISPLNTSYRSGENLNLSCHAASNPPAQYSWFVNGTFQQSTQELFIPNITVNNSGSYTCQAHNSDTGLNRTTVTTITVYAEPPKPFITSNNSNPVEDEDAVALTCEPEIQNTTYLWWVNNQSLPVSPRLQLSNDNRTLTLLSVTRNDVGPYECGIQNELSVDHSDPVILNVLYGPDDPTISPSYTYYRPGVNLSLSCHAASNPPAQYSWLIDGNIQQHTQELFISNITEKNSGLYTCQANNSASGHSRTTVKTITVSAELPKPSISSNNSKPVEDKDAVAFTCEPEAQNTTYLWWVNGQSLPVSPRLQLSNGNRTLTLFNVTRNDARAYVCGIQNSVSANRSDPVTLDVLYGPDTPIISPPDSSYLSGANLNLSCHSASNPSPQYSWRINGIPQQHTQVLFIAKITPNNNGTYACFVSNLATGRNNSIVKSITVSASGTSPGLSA
# T3: human CEACAM6 (human, UniProt P40199 35-320)
# T3 construct: also called CD66c; biotinylated recombinant human CEACAM6
# T3 sequence (looked up): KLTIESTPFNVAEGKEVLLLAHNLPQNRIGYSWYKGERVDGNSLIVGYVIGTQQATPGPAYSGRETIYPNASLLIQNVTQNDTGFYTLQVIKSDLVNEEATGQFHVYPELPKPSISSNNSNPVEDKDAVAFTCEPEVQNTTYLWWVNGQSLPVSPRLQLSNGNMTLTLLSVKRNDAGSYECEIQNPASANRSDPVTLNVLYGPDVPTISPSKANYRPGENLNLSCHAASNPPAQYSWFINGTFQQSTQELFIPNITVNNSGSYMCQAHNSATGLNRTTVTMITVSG
# What was measured:
# [1] = target: T1, human CEACAM5 on MKN-45 cells; assay: flow cytometry on MKN45 CEA+ cells (carry CEACAM5 and CD47)
# [2] = target: T4, human CD47 on MKN45 cells (human, UniProt Q08722 19-323); assay: inhibition of SIRPα-mouseFc binding to CD47 on MKN45 cells, imaging (CX5)
# T4 construct: whole, on cells; also called IAP
# Excerpt: The detection of bound SIRPα cell-based assay monitoring the interaction of soluble SIRPα with human CD47 expressed at the surface of MKN45 is used for the detection of the blocking activity. Dose-response experiments with bispecific antibodies according to the invention allow determination of an IC50 value.
# MKN45 cancer cells, expressing both CD47 and CEACAM5, are stained with CFSE violet to allow the imaging system (CX5) to detect the cells. Briefly, 3,000 stained MKN45 cells per well are seeded in a 384 optical well plate (Costar) and incubated for 50 minutes with increased concentrations of bispecific antibodies of the invention (1.9 pM to 333 nM, in quadruplicates). Then, a fixe concentration of SIRPα-mouseFc premixed with anti-mouse IgG-Fc AF647 coupled antibody (Jackson Immunoresearch diluted 1:2000) is added at 50 ng/mL final. After an incubation of 3H30 plates are acquired with the imaging system (CX5, Thermofisher) and fluorescence signals emitted by the detected bound SIRPα is recorded by the software dedicated to the imaging system. Fluorescence signals are plotted according to the dose range tested and IC50 are calculated by the software (Prism, Graphpad).
# shed CEA (soluble CEA) = target: T2, shed CEA (soluble CEA); assay: cell-based or functional assay
# [3] = target: T1, human CEACAM5 on MKN-45 cells; assay: binding to MKN-45 cells (MFI), without shed CEA
# [4] = target: T1, human CEACAM5 on MKN-45 cells; assay: flow cytometry on MKN45 CEA+ cells (carry CEACAM5 and CD47); MKN45 CEA+ cancer cells
# [5] = target: T1, human CEACAM5 on MKN-45 cells; assay: binding to MKN-45 cells (MFI), in the presence of 200 ng/mL shed CEA
# [6] = target: T1, human CEACAM5 on MKN-45 cells; assay: FACS binding to MKN-45 cells, which express CD47, CEACAM5 and CEACAM6; K2AC39 is cross-reactive to CEACAM6
# human CEACAM6 = target: T3, human CEACAM6; assay: ELISA on biotinylated recombinant human CEACAM6 captured on streptavidin, bivalent mAb
# Method: Biotinylated recombinant human CEACAM5 or CEACAM6 proteins are captured at 0.5 μg/mL in a streptavidin coated 96-well microplate. The plate is washed and monoclonal anti-CEA bivalent antibodies of the present invention are added as a broad concentration-range (e.g. from […] to 1 μg/mL) and incubated during 1 hr. The plate is washed and bound antibodies are detected with an anti-human IgG(Fc)-HRP (Jackson ImmunoResearch). […] The fluorescence signal is measured on a Synergy HT plate reader (Biotek).
Binder,EC50 [1] [nM],IC50 [2] [nM],further results
"K2AC18 CEA×CD47 bispecific antibody (bispecific antibody, human IgG1, kappa, lambda, κλ body, human IgG1, common heavy chain; CEACAM5 arm light chain 1A2 (AC18)) heavy: not shown light 1: SYVLTQPPSVSVAPGKTARITCGGNGIGDASVHWYQQKPGQAPVLVIYSTTTRPSGIPERFSGSNSGNTATLTISRVEAGDEADYYCQVWDGFGPRHRAVFGGGTKLTVLGQPKAAPSVTLFPPSSEELQANKATLVCLISDFYPGAVTVAWKADSSPVKAGVETTTPSKQSNNKYAASSYLSLTPEQWKSHRSYSCQVTHEGSTVEKTVAPTECS light 2: not shown",132,7,–
"K2AC5 CEA×CD47 bispecific antibody (bispecific antibody, human IgG1, kappa, lambda, κλ body, human IgG1, common heavy chain; CEACAM5 arm light chain 1D9 (AC5) with lambda constant domain, CD47 arm kappa light chain KA3 (K2); also called CD47×CEA bispecific antibody K2AC5) heavy: not shown light 1: QSVLTQPPSVSAAPGQKVTISCSGSSSNIGYGLVSWYQQLPGTAPKLLIYAGNLRPSGIPDRFSGSKSGTSATLGITGLQTGDEADYYCGTWDFNYGVVFGGGTKLTVLGQPKAAPSVTLFPPSSEELQANKATLVCLISDFYPGAVTVAWKADSSPVKAGVETTTPSKQSNNKYAASSYLSLTPEQWKSHRSYSCQVTHEGSTVEKTVAPTECS light 2: not shown",–,0.4,shift of EC50 of the phagocytosis index curve of MKN-45 cells by 200 ng/mL shed CEA (shed CEA (soluble CEA)): < 4 fold; EC50 (read off the curve) [3]: ~0.3 µg/mL; EC50 [4]: 11.3 nM; EC50 (read off the curve) [5]: ~0.3 µg/mL
"K2AC27 CEA×CD47 bispecific antibody (bispecific antibody, human IgG1, kappa, lambda, κλ body, human IgG1, common heavy chain; CEACAM5 arm light chain 2C11 (AC27)) heavy: not shown light 1: QSVLTQPPSVSGAPGQRVTISCTGSSSNIGYADKVHWYQQLPGTAPKLLIYNNSDRPSGVPDRFSGSKSGTSASLAITGLQAEDEADYYCQSYDGYNMLTAVFGGGTKLTVLGQPKAAPSVTLFPPSSEELQANKATLVCLISDFYPGAVTVAWKADSSPVKAGVETTTPSKQSNNKYAASSYLSLTPEQWKSHRSYSCQVTHEGSTVEKTVAPTECS light 2: not shown",12.5,0.86,–
"K2AC26 CEA×CD47 bispecific antibody (bispecific antibody, human IgG1, kappa, lambda, κλ body, human IgG1, common heavy chain; CEACAM5 arm light chain 2F7 (AC26)) heavy: not shown light 1: QSALTQPASVSGSPGQSITISCTGTSSDVKYANAVSWYQQHPGKAPKLMIYSNSIRPSGVSNRFSGSKSGNTASLTISGLQAEDEADYYCSSYDPRGNLLIRVFGGGTKLTVLGQPKAAPSVTLFPPSSEELQANKATLVCLISDFYPGAVTVAWKADSSPVKAGVETTTPSKQSNNKYAASSYLSLTPEQWKSHRSYSCQVTHEGSTVEKTVAPTECS light 2: not shown",12.7,0.32,–
"K2AC29 CEA×CD47 bispecific antibody (bispecific antibody, human IgG1, kappa, lambda, κλ body, human IgG1, common heavy chain; CEACAM5 arm light chain 2B5 (AC29)) heavy: not shown light 1: QSALTQPASVSGSPGQSITISCTGTSSDVEFTNGVSWYQQHPGKAPKLMIYGFSSRPSGVSNRFSGSKSGNTASLTISGLQAEDEADYYCSSYDPPWHLLARVFGGGTKLTVLGQPKAAPSVTLFPPSSEELQANKATLVCLISDFYPGAVTVAWKADSSPVKAGVETTTPSKQSNNKYAASSYLSLTPEQWKSHRSYSCQVTHEGSTVEKTVAPTECS light 2: not shown",14.5,0.72,–
"K2AC10 CEA×CD47 bispecific antibody (bispecific antibody, human IgG1, kappa, lambda, κλ body, human IgG1, common heavy chain; CEACAM5 arm light chain 1D5 (AC10)) heavy: not shown light 1: QSVLTQPPSVSGAPGQRVTISCTGSSSNIYANSNVHWYQQLPGTAPKLLIYSGSNRPSGVPDRFSGSKSGTSASLAITGLQAEDEADYYCQSYDPAHNLLTAVFGGGTKLTVLGQPKAAPSVTLFPPSSEELQANKATLVCLISDFYPGAVTVAWKADSSPVKAGVETTTPSKQSNNKYAASSYLSLTPEQWKSHRSYSCQVTHEGSTVEKTVAPTECS light 2: not shown",1.15,0.22,–
"K2AC13 CEA×CD47 bispecific antibody (bispecific antibody, human IgG1, kappa, lambda, κλ body, human IgG1, common heavy chain; CEACAM5 arm light chain 2B8 (AC13)) heavy: not shown light 1: QSALTQPASVSGSPGQSITISCTGTSSNVRYAAGVSWYQQHPGKAPKLMIYEVSNRPSGVSNRFSGSKSGNTASLTISGLQAEDEADYYCSSWDFEHGPAAKVFGGGTKLTVLGQPKAAPSVTLFPPSSEELQANKATLVCLISDFYPGAVTVAWKADSSPVKAGVETTTPSKQSNNKYAASSYLSLTPEQWKSHRSYSCQVTHEGSTVEKTVAPTECS light 2: not shown",190,4,–
"K2AC28 CEA×CD47 bispecific antibody (bispecific antibody, human IgG1, kappa, lambda, κλ body, human IgG1, common heavy chain; CEACAM5 arm light chain C11 (AC28)) heavy: not shown light 1: NFMLTQPHSVSESPGKTVTISCTRSSGSINDITVHWYQQRPGSSPTTVIYGYNARPSGVPDRFSGSIDSSSNSASLTISGLKTEDEADYYCQSWDGHGSAYVFGGGTKLTVLGQPKAAPSVTLFPPSSEELQANKATLVCLISDFYPGAVTVAWKADSSPVKAGVETTTPSKQSNNKYAASSYLSLTPEQWKSHRSYSCQVTHEGSTVEKTVAPTECS light 2: not shown",52.5,0.95,–
"K2AC39 CD47×CEA bispecific antibody (bispecific antibody, human IgG1, kappa, lambda, κλ body with common heavy chain; CEACAM5/CEACAM6 arm light chain 1B2 (AC39)) heavy: not shown light 1: QSVLTQPPSVSAAPGQKVTISCSGSSSEITASGVSWYQQLPGTAPKLLIYDNNKRPSGIPDRFSGSKSGTSATLGITGLQTGDEADYYCGTWDFPPSRFVFGGGTKLTVLGQPKAAPSVTLFPPSSEELQANKATLVCLISDFYPGAVTVAWKADSSPVKAGVETTTPSKQSNNKYAASSYLSLTPEQWKSHRSYSCQVTHEGSTVEKTVAPTECS light 2: not shown",–,–,EC50 (read off the curve) [6]: ~3 µg/mL
"K2AC25 CEA×CD47 bispecific antibody (bispecific antibody, human IgG1, kappa, lambda, κλ body, human IgG1, common heavy chain; CEACAM5 arm light chain 2F4 (AC25)) heavy: not shown light 1: QSVLTQPPSVSAAPGQKVTISCSGSSSNIGITPVSWYQQLPGTAPKLLIYSNNFRPSGIPDRFSGSKSGTSATLGITGLQTGDEADYYCGTWDRTGHEIRPVFGGGTKLTVLGQPKAAPSVTLFPPSSEELQANKATLVCLISDFYPGAVTVAWKADSSPVKAGVETTTPSKQSNNKYAASSYLSLTPEQWKSHRSYSCQVTHEGSTVEKTVAPTECS light 2: not shown",13,0.22,–
"AC22 anti-CEA bivalent monoclonal antibody (antibody, human IgG1, lambda, V domains shown, also called 1G6; anti-CEA bivalent mAb of K2AC22) VH: not shown VL: QSVLTQPPSVSAAPGQKVTISCSGSSSNIANGIVSWYQQLPGTAPKLLIYFDNLRPSGIPDRFSGSKSGTSATLGITGLQTGDEADYYCGTWDFSYGIVFGGGTKLTVLG",–,–,binding result (human CEACAM6): no binding

# Reference: patent publication US20200123252A1 (LAMKAP BIO BETA, published 2020)
